Measured values as given in patent publication US20240383985A1 (published 2024).

B1: QP42664421 (antibody)
chain 1: DIVMTQSPDSLTVSLGERTTINCKSSQSVLDSSTNKNSLAWYQQKPGQPPKLLLSWASTRESGIPDRFSGSGSGTDFTLTIDSPQPEDSATYYCQQSAHFPITFGQGTRLEIKRTVAAPSVFIFPPSDEQLKSGTASVVCLLNNFYPREAKVQWKVDNALQSGNSQESVTEQDSKDSTYSLSSTLTLSKADYEKHKVYACEVTHQGLSSPVTKSFNRGEC
chain 2: QVQLVQSGAEVKKPGESVKVSCKASGYTFTNYGMNWVKQAPGQGLEWMGWINTYTGEPTYADKFQGRVTMTTDTSTSTAYMEIRNLGGDDTAVYYCARWSWSDGYYVYFDYWGQGTSVTVSSASTKGPSVFPLAPSSKSTSGGTAALGCLVKDYFPEPVTVSWNSGALTSGVHTFPAVLQSSGLYSLSSVVTVPSSSLGTQTYICNVNHKPSNTKVDKKVEPKSCDKTHTCPPCPAPEAAGGPSVFLFPPKPKDTLMISRTPEVTCVVVDVSHEDPEVKFNWYVDGVEVHNAKTKPREEQYNSTYRVVSVLTVLHQDWLNGKEYKCKVSNKALPAPIEKTISKAKGQPREPQVYTLPPSREEMTKNQVSLSCAVKGFYPSDIAVEWESNGQPENNYKTTPPVLDSDGSFFLVSKLTVDKSRWQQGNVFSCSVMHEALHNRYTQKSLSLSPGKGGSHHHHHH
chain 3: MEFGLSWLFLVAILKGVQCITCPPPMSVEHADIWVKSYSLYSRERYICNSGFKRKAGTCSLTECVLNKATNVAHWTTPSLKCIRGGGSGGGGGGGGSSYVLTQPSSVSVAPGQTATISCGGHNIGSKNVHWYQQRPGQSPVLVIYQDNKRPSGIPERFSGSNSGNTATLTISGTQAMDEADYYCQVWDNYSVLFGGGTKLTVL
chain 4: not shown
B2: QP42664269 (antibody)
chain 1: DIVMTQSPDSLTVSLGERTTINCKSSQSVLDSSTNKNSLAWYQQKPGQPPKLLLSWASTRESGIPDRFSGSGSGTDFTLTIDSPQPEDSATYYCQQSAHFPITFGQGTRLEIKRTVAAPSVFIFPPSDEQLKSGTASVVCLLNNFYPREAKVQWKVDNALQSGNSQESVTEQDSKDSTYSLSSTLTLSKADYEKHKVYACEVTHQGLSSPVTKSFNRGEC
chain 2: QVQLVQSGAEVKKPGESVKVSCKASGYTFTNYGMNWVKQAPGQGLEWMGWINTYTGEPTYADKFQGRVTMTTDTSTSTAYMEIRNLGGDDTAVYYCARWSWSDGYYVYFDYWGQGTSVTVSSASTKGPSVFPLAPSSKSTSGGTAALGCLVKDYFPEPVTVSWNSGALTSGVHTFPAVLQSSGLYSLSSVVTVPSSSLGTQTYICNVNHKPSNTKVDKKVEPKSCDKTHTCPPCPAPEAAGGPSVFLFPPKPKDTLMISRTPEVTCVVVDVSHEDPEVKFNWYVDGVEVHNAKTKPREEQYNSTYRVVSVLTVLHQDWLNGKEYKCKVSNKALPAPIEKTISKAKGQPREPQVYTLPPSREEMTKNQVSLSCAVKGFYPSDIAVEWESNGQPENNYKTTPPVLDSDGSFFLVSKLTVDKSRWQQGNVFSCSVMHEALHNRYTQKSLSLSPGKGGSHHHHHH
chain 3: not shown
chain 4: not shown
B3: QP42884285 (antibody)
chain 1: DIVMTQSPDSLTVSLGERTTINCKSSQSVLDSSTNKNSLAWYQQKPGQPPKLLLSWASTRESGIPDRFSGSGSGTDFTLTIDSPQPEDSATYYCQQSAHFPITFGQGTRLEIKTVAAPSVFIFPPSYVLTQPSSVSVAPGQTATISCGGHNIGSKNVHWYQQRPGQSPVLVIYQDNKRPSGIPERFSGSNSGNTATLTISGTQAMDEADYYCQVWDNYSVLFGGGTKLTVLRTVAAPSVFIFPPSDEQLKSGTASVVCLLNNFYPREAKVQWKVDNALQSGNSQESVTEQDSKDSTYSLSSTLTLSKADYEKHKVYACEVTHQGLSSPVTKSFNRGEC
chain 2: QVQLVQSGAEVKKPGESVKVSCKASGYTFTNYGMNWVKQAPGQGLEWMGWINTYTGEPTYADKFQGRVTMTTDTSTSTAYMEIRNLGGDDTAVYYCARWSWSDGYYVYFDYWGQGTSVTVSSASTKGPQVQLVQSGAEVKKPGESLKVSCKASGYTFTSYYMHWVRQAPGQGLEWMGIINPSGGSTSYAQKFQGRVTMTRDTSTSTVYMELSSLRSEDTAVYYCARGSAYYYDFADYWGQGTLVTVSSASTKGPSVFPLAPSSKSTSGGTAALGCLVKDYFPEPVTVSWNSGALTSGVHTFPAVLQSSGLYSLSSVVTVPSSSLGTQTYICNVNHKPSNTKVDKKVEPKSCDKTHTCPPCPAPEAAGGPSVFLFPPKPKDTLMISRTPEVTCVVVDVSHEDPEVKFNWYVDGVEVHNAKTKPREEQYNSTYRVVSVLTVLHQDWLNGKEYKCKVSNKALPAPIEKTISKAKGQPREPQVYTLPPSREEMTKNQVSLSCAVKGFYPSDIAVEWESNGQPENNYKTTPPVLDSDGSFFLVSKLTVDKSRWQQGNVFSCSVMHEALHNRYTQKSLSLSPGKGGSHHHHHH
chain 3: not shown
chain 4: not shown
B4: QP42664406 (antibody)
chain 1: DIVMTQSPDSLTVSLGERTTINCKSSQSVLDSSTNKNSLAWYQQKPGQPPKLLLSWASTRESGIPDRFSGSGSGTDFTLTIDSPQPEDSATYYCQQSAHFPITFGQGTRLEIKRTVAAPSVFIFPPSDEQLKSGTASVVCLLNNFYPREAKVQWKVDNALQSGNSQESVTEQDSKDSTYSLSSTLTLSKADYEKHKVYACEVTHQGLSSPVTKSFNRGEC
chain 2: QVQLVQSGAEVKKPGESVKVSCKASGYTFTNYGMNWVKQAPGQGLEWMGWINTYTGEPTYADKFQGRVTMTTDTSTSTAYMEIRNLGGDDTAVYYCARWSWSDGYYVYFDYWGQGTSVTVSSASTKGPSVFPLAPSSKSTSGGTAALGCLVKDYFPEPVTVSWNSGALTSGVHTFPAVLQSSGLYSLSSVVTVPSSSLGTQTYICNVNHKPSNTKVDKKVEPKSCDKTHTCPPCPAPEAAGGPSVFLFPPKPKDTLMISRTPEVTCVVVDVSHEDPEVKFNWYVDGVEVHNAKTKPREEQYNSTYRVVSVLTVLHQDWLNGKEYKCKVSNKALPAPIEKTISKAKGQPREPQVYTLPPSREEMTKNQVSLSCAVKGFYPSDIAVEWESNGQPENNYKTTPPVLDSDGSFFLVSKLTVDKSRWQQGNVFSCSVMHEALHNRYTQKSLSLSPGKGGSHHHHHH
chain 3: not shown
chain 4: not shown
B5: QP42824285 (antibody)
chain 1: MEFGLSWLFLVAILKGVQCQVQLVQSGAEVKKPGESVKVSCKASGYTFTNYGMNWVKQAPGQGLEWMGWINTYTGEPTYADKFQGRVTMTTDTSTSTAYMEIRNLGGDDTAVYYCARWSWSDGYYVYFDYWGQGTSVTVSSGGGSGGGGSYVLTQPSSVSVAPGQTATISCGGHNIGSKNVHWYQQRPGQSPVLVIYQDNKRPSGIPERFSGSNSGNTATLTISGTQAMDEADYYCQVWDNYSVLFGGGTKLTVLGGGGSGGGGSGGGGSRTVAAPSVFIFPPSDEQLKSGTASVVCLLNNFYPREAKVQWKVDNALQSGNSQESVTEQDSKDSTYSLSSTLTLSKADYEKHKVYACEVTHQGLSSPVTKSFNRGEC
chain 2: MEFGLSWLFLVAILKGVQCQVQLVQSGAEVKKPGESLKVSCKASGYTFTSYYMHWVRQAPGQGLEWMGIINPSGGSTSYAQKFQGRVTMTRDTSTSTVYMELSSLRSEDTAVYYCARGSAYYYDFADYWGQGTLVTVSSGGGSGGGGDIVMTQSPDSLTVSLGERTTINCKSSQSVLDSSTNKNSLAWYQQKPGQPPKLLLSWASTRESGIPDRFSGSGSGTDFTLTIDSPQPEDSATYYCQQSAHFPITFGQGTRLEIKGGGGSGGGGSGGGGSASTKGPSVFPLAPSSKSTSGGTAALGCLVKDYFPEPVTVSWNSGALTSGVHTFPAVLQSSGLYSLSSVVTVPSSSLGTQTYICNVNHKPSNTKVDKKVEPKSCDKTHTCPPCPAPEAAGGPSVFLFPPKPKDTLMISRTPEVTCVVVDVSHEDPEVKFNWYVDGVEVHNAKTKPREEQYNSTYRVVSVLTVLHQDWLNGKEYKCKVSNKALPAPIEKTISKAKGQPREPQVYTLPPSREEMTKNQVSLSCAVKGFYPSDIAVEWESNGQPENNYKTTPPVLDSDGSFFLVSKLTVDKSRWQQGNVFSCSVMHEALHNRYTQKSLSLSPGKGGSHHHHHH
chain 3: not shown
chain 4: not shown

What follows are binders tested against CD33 naturally expressed on HL60 cells (human, UniProt P20138 18-364) (assay: FACS).
CD33 naturally expressed on HL60 cells, sequence (P20138 18-364): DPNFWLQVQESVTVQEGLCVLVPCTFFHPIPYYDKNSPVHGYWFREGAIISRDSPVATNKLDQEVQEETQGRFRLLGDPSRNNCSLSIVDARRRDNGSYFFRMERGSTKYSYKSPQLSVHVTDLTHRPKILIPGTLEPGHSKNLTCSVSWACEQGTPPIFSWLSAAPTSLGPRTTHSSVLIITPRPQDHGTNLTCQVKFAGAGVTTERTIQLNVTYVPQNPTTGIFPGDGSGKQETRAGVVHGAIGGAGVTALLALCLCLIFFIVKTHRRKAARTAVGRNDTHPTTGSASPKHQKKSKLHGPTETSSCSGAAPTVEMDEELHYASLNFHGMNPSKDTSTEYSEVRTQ

Binder | EC50 [nM]
B1 | 11.6
B2 | 2.27
B3 | 1.97
B4 | 11.3
B5 | 2.31
